Assay results reported in article PMC9509318 (Nature Communications, 2022).

How the values were obtained:
Conditions in all cases: both partners purified
[1] = biological target: Pfs48/45-D2 + 3 (central and C-terminal domains) (Plasmodium falciparum, UniProt Q8I6T1); experiment: crystal structure
[2] = biological target: T1, Pfs48/45 full-length ectodomain (Plasmodium falciparum, UniProt Q8I6T1); experiment: negative stain electron microscopy
[3] = biological target: T1, Pfs48/45 full-length ectodomain; experiment: SPR
[4] = biological target: Pfs48/45-D3 (C-terminal 6-cys domain of Pfs48/45) (Plasmodium falciparum 3D7 …, UniProt Q8I6T1); experiment: SPR
Chain of Pfs48/45-D3 (C-terminal 6-cys domain of Pfs48/45) (Q8I6T1 291-428): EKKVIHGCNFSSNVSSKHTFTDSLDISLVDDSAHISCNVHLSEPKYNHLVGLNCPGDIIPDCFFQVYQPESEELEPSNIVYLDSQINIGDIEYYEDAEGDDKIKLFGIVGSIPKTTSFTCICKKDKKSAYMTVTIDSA

T1 sequence (Q8I6T1 27-427): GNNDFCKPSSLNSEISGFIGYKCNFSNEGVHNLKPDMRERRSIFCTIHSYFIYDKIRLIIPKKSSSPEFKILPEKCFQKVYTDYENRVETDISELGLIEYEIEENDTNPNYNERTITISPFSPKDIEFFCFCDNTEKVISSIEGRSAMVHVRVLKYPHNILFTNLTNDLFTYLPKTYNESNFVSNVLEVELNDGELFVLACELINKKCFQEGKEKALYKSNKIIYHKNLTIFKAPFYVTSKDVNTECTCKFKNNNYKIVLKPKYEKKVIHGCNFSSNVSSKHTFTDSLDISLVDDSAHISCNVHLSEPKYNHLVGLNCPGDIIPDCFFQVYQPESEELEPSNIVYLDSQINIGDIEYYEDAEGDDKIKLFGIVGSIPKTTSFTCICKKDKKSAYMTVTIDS
Chain of Pfs48/45-D2 + 3 (central and C-terminal domains) (Q8I6T1 159-428): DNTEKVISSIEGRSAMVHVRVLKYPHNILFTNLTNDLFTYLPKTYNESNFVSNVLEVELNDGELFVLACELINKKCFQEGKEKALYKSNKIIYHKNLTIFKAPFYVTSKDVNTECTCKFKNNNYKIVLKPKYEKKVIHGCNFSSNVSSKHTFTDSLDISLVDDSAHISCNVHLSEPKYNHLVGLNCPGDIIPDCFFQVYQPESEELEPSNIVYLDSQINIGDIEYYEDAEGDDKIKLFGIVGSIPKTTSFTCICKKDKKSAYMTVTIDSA

B1: 10D8 Fab fragment (Fab, V domains shown)
VH: EVMLVESGGDLVKPGGSLKVSCAASGFTFSNYAMSWVRQTPEKRLEWVATISSGASYTHYPDSVKGRFTISRDNAKNTLYLQMSSLRSEDTAMYYCGRQVNRHDRALDAMDYWGQGTSVTVSP
VL: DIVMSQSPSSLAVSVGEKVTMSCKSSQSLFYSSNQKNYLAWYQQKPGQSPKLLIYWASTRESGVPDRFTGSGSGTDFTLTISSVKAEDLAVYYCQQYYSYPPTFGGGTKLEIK
notes: source: hybridoma cell line, purified using protein A/G, ficin cleaved to Fab
binding result [1]: binds | binding result [2]: binds

B2: 10D8 monoclonal antibody (antibody, V domains shown)
VH: B1 VH
VL: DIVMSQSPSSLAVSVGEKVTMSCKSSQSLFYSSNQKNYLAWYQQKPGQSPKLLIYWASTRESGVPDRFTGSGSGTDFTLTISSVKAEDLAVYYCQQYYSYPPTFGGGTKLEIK
notes: source: hybridoma cell line, purified using protein A/G
binding result [3]: binds

B3: 32F3 monoclonal antibody (antibody, V domains shown)
VH: DVKLVESGGGLVKLGGSLKLSCAASGFTFSSYYMSWVRQTPEKRLELVAAINNNGGSTYYPDTVKGRFTISRDNAKNTLNLQMNSLKSEDTALYYCTRQHYGNLYFFDYWGQGTTLTVSS
VL: QIVLSQSPAILSASPGEKVTMTCRASSSVTYIHWYQQKPGSSPKPWIQATSSLASGVPARFSGSGSGTSYSLSISRVEAEDAATYYCQQWSSNPLTFGAGTKLELK
notes: as for B2
Kd [4]: 5.2 nM
